US20090215683A1 (ONCOTHERAPY SCIENCE, published 2009)

T1: kinetocore associated 2 (KNTC2), endogenous protein of LC319 lung-cancer cells (human, UniProt O14777 1-642)
T1 construct: Endogenous protein in lysates of the human lung-cancer cell line LC319; Seen as a 75-kDa band and identified by MALDI-TOF mass spectrometry; also called endogenous KNTC2
T1 sequence: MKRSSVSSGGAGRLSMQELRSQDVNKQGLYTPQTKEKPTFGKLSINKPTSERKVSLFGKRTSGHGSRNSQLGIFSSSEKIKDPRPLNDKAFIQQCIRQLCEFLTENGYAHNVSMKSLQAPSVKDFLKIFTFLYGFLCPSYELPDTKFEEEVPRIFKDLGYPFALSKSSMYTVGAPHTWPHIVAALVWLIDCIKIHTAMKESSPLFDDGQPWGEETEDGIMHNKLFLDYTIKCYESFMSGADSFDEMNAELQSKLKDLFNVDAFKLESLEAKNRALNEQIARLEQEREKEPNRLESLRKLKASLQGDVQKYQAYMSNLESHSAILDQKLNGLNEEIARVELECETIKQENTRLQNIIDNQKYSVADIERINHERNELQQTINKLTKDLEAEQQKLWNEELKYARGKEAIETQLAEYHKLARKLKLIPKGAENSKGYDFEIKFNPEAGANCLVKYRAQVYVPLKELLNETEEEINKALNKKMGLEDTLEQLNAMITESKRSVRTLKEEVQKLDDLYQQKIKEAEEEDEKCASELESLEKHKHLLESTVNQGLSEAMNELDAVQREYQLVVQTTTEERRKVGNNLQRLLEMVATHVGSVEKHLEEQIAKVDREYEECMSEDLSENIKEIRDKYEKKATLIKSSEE


Legend:
[1] = target: T1, kinetocore associated 2 (KNTC2), …; assay: immunoprecipitation with KNTC2 polyclonal antibody from LC319 cells transfected with pCAGGSn3Fc-CDCA1, anti-FLAG M2 immunoblot
Description: (f) Identification of CDCA1-associated Proteins: Cell extracts from lung-cancer cell line LC319 were pre-cleared by incubation at 4° C. for 1 hour with 50 μl of protein A and G-agarose beads, in final volumes of 2 ml of immunoprecipitation buffer (0.5% NP-40, 50 mM Tris-HCl, 150 mM NaCl) in the presence of proteinase inhibitor. After centrifugation at 1,000 rpm for 5 min at 4° C., the supernatants were incubated at 4° C. with anti-CDCA1 polyclonal antibody, anti-KNTC2 polyclonal antibody, or normal rabbit IgG for 2 hours. After incubation at 4° C. for 1 hour with 50 μl of protein A and G-agarose beads, the beads were collected from each sample by centrifugation at 5,000 rpm for 2 min and washed six times with 1 ml of immunoprecipitation buffer, and the washed beads were re-suspended in 50 μl of Laemmli sample buffer and boiled for 5 min before the proteins were separated on 5-10% SDS PAGE gels (BIO RAD). After electrophoresis, the gels were stained with silver. […] The nucleotide sequence of each cDNA clone was determined with an ABI Prism 3700 DNA sequencer (Applied Biosystems, Foster City, Calif.), using T3, T7, or synthetic oligonucleotide primers according to the manufacturer's instructions. […]

[2] = target: T1, kinetocore associated 2 (KNTC2), …; assay: anti-Flag immunoprecipitation (FIG. 2C); also immunoprecipitation with anti-KNTC2 polyclonal antibody (FIG. 5A)
Description: (§1) Cell extracts from lung-cancer cell line LC319, transfected with plasmids expressing eleven deletion-constructs of CDCA1 were pre-cleared by incubation at 4° C. for 1 hour with 100 μl of protein G-agarose beads in final volumes of 2 ml of immunoprecipitation buffer (0.5% NP-40, 50 mM Tris-HCl, 150 mM NaCl) in the presence of proteinase inhibitor. After centrifugation at 1,000 rpm for 5 min at 4° C., the supernatants were incubated at 4° C. with anti-FLAG M2 agarose for 2 hours. After the beads were collected from each sample by centrifugation at 5,000 rpm for 2 min and washed six times with 1 ml of immunoprecipitation buffer, the washed beads were re-suspended in 50 μl of Laemmli sample buffer and boiled for 5 min before the proteins were separated on 10% SDS PAGE gels. Immunoblot was performed using KNTC2 polyclonal antibody (Abcom, Inc.) and anti-FLAG M2 monoclonal antibody respectively (Sigma-Aldrich Co.).

[3] = target: T1, kinetocore associated 2 (KNTC2), …; assay: anti-Flag immunoprecipitation from transfected LC319 cells, immunoblot for KNTC2 (FIG. 2C)
Description: as §1

[4] = target: T1, kinetocore associated 2 (KNTC2), …; assay: anti-Flag immunoprecipitation from transfected LC319 cells, immunoblot for KNTC2 (FIG. 2D)
Description: as §1

Binder	binding result [3]	binding result [4]	also measured
CDCA1 1-464 (full length), exogenous, expressed from pCAGGSn3Fc-CDCA1 in LC319 cells (other, not shown: small tags and cut ends, It is treated as the same molecule here; also called exogenous CDCA1) METLSFPRYNVAEIVIHIRNKILTGADGKNLTKNDLYPNPKPEVLHMIYMRALQIVYGIRLEHFYMMPVNSEVMYPHLMEGFLPFSNLVTHLDSFLPICRVNDFETADILCPKAKRTSRFLSGIINFIHFREACRETYMEFLWQYKSSADKMQQLNAAHQEALMKLERLDSVPVEEQEEFKQLSDGIQELQQSLNQDFHQKTIVLQEGNSQKKSNISEKTKRLNELKLLVVSLKEIQESLKTKIVDSPEKLKNYKEKMKDTVQKLKNARQEVVEKYEIYGDSVDCLPSCQLEVQLYQKKIQDLSDNREKLASILKESLNLEDQIESDESELKKLKTEENSFKRLMIVKKEKLATAQFKINKKHEDVKQYKRTVIEDCNKVQEKRGAVYERVTTINQEIQKIKLGIQQLKDAAEREKLKSQEIFLNLKTALEKYHDGIEKAAEDSYAKIDEKTAELKRKMFKMST			binding result [1]: binds
CDCA1 200-464 deletion construct with C-terminal FLAG sequence (other, Expressed by transfection in LC319 cells; also called dominant-negative fragment of CDCA1; not shown: C-terminal FLAG tag of the pCAGGS vector) QKTIVLQEGNSQKKSNISEKTKRLNELKLLVVSLKEIQESLKTKIVDSPEKLKNYKEKMKDTVQKLKNARQEVVEKYEIYGDSVDCLPSCQLEVQLYQKKIQDLSDNREKLASILKESLNLEDQIESDESELKKLKTEENSFKRLMIVKKEKLATAQFKINKKHEDVKQYKRTVIEDCNKVQEKRGAVYERVTTINQEIQKIKLGIQQLKDAAEREKLKSQEIFLNLKTALEKYHDGIEKAAEDSYAKIDEKTAELKRKMFKMST			binding result [2]: binds
CDCA1 1-148 deletion construct with C-terminal FLAG sequence (other, Expressed by transfection in LC319 cells; not shown: C-terminal FLAG tag of the pCAGGS vector) METLSFPRYNVAEIVIHIRNKILTGADGKNLTKNDLYPNPKPEVLHMIYMRALQIVYGIRLEHFYMMPVNSEVMYPHLMEGFLPFSNLVTHLDSFLPICRVNDFETADILCPKAKRTSRFLSGIINFIHFREACRETYMEFLWQYKSS	no binding		
CDCA1 149-306 deletion construct with C-terminal FLAG sequence (other, Expressed by transfection in LC319 cells; also called control; not shown: C-terminal FLAG tag of the pCAGGS vector) ADKMQQLNAAHQEALMKLERLDSVPVEEQEEFKQLSDGIQELQQSLNQDFHQKTIVLQEGNSQKKSNISEKTKRLNELKLLVVSLKEIQESLKTKIVDSPEKLKNYKEKMKDTVQKLKNARQEVVEKYEIYGDSVDCLPSCQLEVQLYQKKIQDLSDN	no binding		
CDCA1 277-367 deletion construct with C-terminal FLAG sequence (other, Expressed by transfection in LC319 cells; not shown: C-terminal FLAG tag of the pCAGGS vector) EIYGDSVDCLPSCQLEVQLYQKKIQDLSDNREKLASILKESLNLEDQIESDESELKKLKTEENSFKRLMIVKKEKLATAQFKINKKHEDVK		no binding	
NLEDQIESDESELKKLKTEENSFKRLMIVKKEKLATAQFKINKKHEDVK (other, Expressed by transfection in LC319 cells; not shown: C-terminal FLAG tag of the pCAGGS vector) [CDCA1 319-367 deletion construct with C-terminal FLAG sequence]		no binding	
